# Measured values as given in the supplement of paper PMC10126150.
# ± gives the standard deviation of the averaged measurements.
# Test system: ATP
# Assay: switch fluorescence ratio, 500 uM ATP over buffer (Cy3 cluster intensity, sum of 5 cycles each) (fold (ratio)); higher = stronger signal-on switching upon ATP binding; sequences stand for … in TCGTCGGCAGCGTCAGATGTGTATAAGAGACAGTTTTTTTTTTTTTTTTTTTTTTTTT…TC
# Conditions: aptamer strand: ATP DNA aptamer (quencher-CACCTGGGGGAGTATTGCGGAGGAAGG + anchor), 100 nM annealed; ATP concentration: 500 uM
# Procedure, shortened: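 The fluorescence ratio divides summed target-cycle Cy3 intensity by summed buffer-cycle Cy3 intensity for each cluster and is averaged per switch-domain sequence. Cy3-labelled switching-strand clusters on a modified Illumina MiSeq flow-cell were annealed to 100 nM quencher-labelled ATP aptamer, then imaged in selection buffer and again after 15 min with 500 uM ATP at 22 °C. Five such cycles were run, with NaOH stripping and re-annealing between them, and clusters outside 100-1000 RFU were excluded.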
# 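Note: ATP exposure 15 min at 22 °C before imaging.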
row,Sequence,switch fluorescence ratio
1,CGGTTTTCTT,0.995 ± 0.012
2,CGGTTTTTAT,0.983 ± 0.018
3,CGGTTTTTGT,0.9992 ± 0.008
4,CGTAAAGGGA,0.987 ± 0.013
5,CGTAACTTAC,1.6 ± 0.097
6,CGTAAGACGT,1.03 ± 0.044
7,CGTAATTGTA,1.01 ± 0.018
8,CGTAATTTTC,1.09 ± 0.083
9,CGTACAAGTC,0.963 ± 0.058
10,CGTACAGCAG,1.01 ± 0.054
11,CGTACCAGGG,1.32 ± 0.036
12,CGTACCATCC,1.6 ± 0.18
13,CGTACCGGTC,1.04 ± 0.079
14,CGTACGCCGG,0.993 ± 0.021
15,CGTACTTGTT,1.01 ± 0.035
16,CGTAGACGAA,0.974 ± 0.0094
17,CGTAGACTGC,1.06 ± 0.024
18,CGTAGGAAAA,0.98 ± 0.096
19,CGTAGGATTT,0.9554 ± 0.0048
20,CGTAGGGAAT,1.014 ± 0.0064
21,CGTAGGGGGA,0.984 ± 0.015
22,CGTAGGGGTT,0.989 ± 0.028
23,CGTAGTAGAC,2.61 ± 0.26
24,CGTAGTAGGA,1.04 ± 0.084
25,CGTAGTGCCC,1.07 ± 0.048

row,Sequence,switch fluorescence ratio
1,CGTAGTTTGC,1.52 ± 0.098
2,CGTATAATGT,0.996 ± 0.015
3,CGTATAGAGA,0.998 ± 0.039
4,CGTATAGTAG,0.958 ± 0.02
5,CGTATATTAG,0.96 ± 0.014
6,CGTATCAATT,1.003 ± 0.004
7,CGTATCGTGA,1.01 ± 0.041
8,CGTATGACTA,0.984 ± 0.05
9,CGTATGGGGA,1 ± 0.023
10,CGTATTATGG,0.998 ± 0.05
11,CGTATTCTGA,0.966 ± 0.064
12,CGTATTGCCA,1 ± 0.025
13,CGTATTTAGT,0.98 ± 0.035
14,CGTATTTGGA,0.985 ± 0.046
15,CGTATTTTAG,1 ± 0.029
16,CGTCAATTTA,1.12 ± 0.12
17,CGTCACTAAT,1.21 ± 0.25
18,CGTCAGAGCG,0.9802 ± 0.008
19,CGTCAGTGCA,1.01 ± 0.024
20,CGTCGACGGG,1.02 ± 0.054
21,CGTCGGAGGC,0.986 ± 0.019
22,CGTCGGCAAA,3.42 ± 0.21
23,CGTCGTAGGG,0.985 ± 0.03
24,CGTCTGTGGG,0.9844 ± 0.0041
25,CGTGAACATA,1.02 ± 0.034

row,Sequence,switch fluorescence ratio
1,CGTGAATTGT,1.044 ± 0.01
2,CGTGACATTG,1.01 ± 0.013
3,CGTGAGATTA,0.9846 ± 0.0009
4,CGTGAGCTAA,1.41 ± 0.19
5,CGTGATAAGT,1.02 ± 0.021
6,CGTGATCAGC,1.017 ± 0.0098
7,CGTGCATGAG,1.01 ± 0.02
8,CGTGCCCAGC,1.01 ± 0.025
9,CGTGCGGATG,1.02 ± 0.0057
10,CGTGCGGGGG,1.01 ± 0.035
11,CGTGCTAGAA,1.0154 ± 0.001
12,CGTGCTAGTC,1.04 ± 0.055
13,CGTGCTCAGA,0.996 ± 0.025
14,CGTGCTGGAC,1.091 ± 0.0065
15,CGTGGAGGGG,1.04 ± 0.013
16,CGTGGAGTCG,0.989 ± 0.1
17,CGTGGATAGT,0.955 ± 0.03
18,CGTGGCCTGT,0.994 ± 0.029
19,CGTGGCGGAT,0.9709 ± 0.0092
20,CGTGGCGGTT,1.09 ± 0.13
21,CGTGGGATAA,1.01 ± 0.023
22,CGTGGGCGGT,0.9807 ± 0.0031
23,CGTGGGGAGC,1.06 ± 0.11
24,CGTGGGGCGG,0.999 ± 0.016
25,CGTGGGGGGC,1.01 ± 0.02

row,Sequence,switch fluorescence ratio
1,CGTGGGGGTC,1.01 ± 0.013
2,CGTGGGGGTT,0.973 ± 0.038
3,CGTGGGGTCA,0.982 ± 0.024
4,CGTGGTAGGG,0.992 ± 0.035
5,CGTGGTGCGA,1.02 ± 0.015
6,CGTGGTTTGC,1.03 ± 0.053
7,CGTGTATTGG,0.987 ± 0.013
8,CGTGTATTTC,1.02 ± 0.022
9,CGTGTCACTT,1.01 ± 0.023
10,CGTGTGGGTT,0.993 ± 0.011
11,CGTGTGTGGT,0.994 ± 0.024
12,CGTGTGTTGA,1.01 ± 0.013
13,CGTGTTGGAC,1.016 ± 0.0032
14,CGTGTTGGAG,0.969 ± 0.011
15,CGTGTTTCGG,0.97715 ± 0.00018
16,CGTGTTTTCC,1.022 ± 0.0015
17,CGTGTTTTCT,0.99 ± 0.031
18,CGTTAAAATA,1.01 ± 0.062
19,CGTTACTCCG,1.5 ± 0.16
20,CGTTAGTAAA,0.9862 ± 0.0035
21,CGTTATACAG,1.01 ± 0.026
22,CGTTATATTC,1.08 ± 0.031
23,CGTTCAGCT,1.01 ± 0.035
24,CGTTCAGTTC,0.972 ± 0.053
25,CGTTCAGTTT,0.9929 ± 0.0028

row,Sequence,switch fluorescence ratio
1,CGTTCATTGT,0.9942 ± 0.0098
2,CGTTCGGAGG,0.991 ± 0.037
3,CGTTCGTTCG,0.989 ± 0.015
4,CGTTGACGCG,1.02 ± 0.016
5,CGTTGAGATC,1.06 ± 0.059
6,CGTTGAGGAC,1.024 ± 0.0053
7,CGTTGAGTCG,0.992 ± 0.06
8,CGTTGATGTG,0.99 ± 0.045
9,CGTTGGAGCG,1 ± 0.03
10,CGTTGGGCTC,1.019 ± 0.0051
11,CGTTGGGGGT,0.978 ± 0.022
12,CGTTGGTGGC,0.9457 ± 0.0066
13,CGTTGGTGTG,1 ± 0.028
14,CGTTGTATGG,1.01 ± 0.046
15,CGTTGTATTA,0.996 ± 0.051
16,CGTTGTGAGG,1.03 ± 0.038
17,CGTTGTTACA,1.04 ± 0.018
18,CGTTGTTAGT,1.037 ± 0.0083
19,CGTTGTTATG,0.9852 ± 0.0067
20,CGTTGTTTGG,0.966 ± 0.058
21,CGTTTAACTC,1.05 ± 0.055
22,CGTTTACTCT,1.055 ± 0.0043
23,CGTTTACTTT,0.984 ± 0.059
24,CGTTTAGCGT,1 ± 0.0018
25,CGTTTAGGTA,0.982 ± 0.048

row,Sequence,switch fluorescence ratio
1,CGTTTAGTAG,1.03 ± 0.013
2,CGTTTATGTG,0.9953 ± 0.0089
3,CGTTTCGCCC,1.04 ± 0.038
4,CGTTTCGTGT,0.972 ± 0.066
5,CGTTTGGAAC,1.01 ± 0.055
6,CGTTTGGGAG,0.9739 ± 0.0061
7,CGTTTGGGGT,1.002 ± 0.0071
8,CGTTTGTTCT,1.03 ± 0.061
9,CGTTTGTTGC,0.974 ± 0.034
10,CGTTTGTTGG,0.984 ± 0.028
11,CGTTTTATAG,0.9973 ± 0.0071
12,CGTTTTATGC,0.947 ± 0.059
13,CGTTTTTCTG,0.968 ± 0.013
14,CTAAAATTAA,1.01 ± 0.031
15,CTAAACTAGG,1.02 ± 0.013
16,CTAAAGGAAG,1.01 ± 0.029
17,CTAAAGGACT,0.9989 ± 0.0015
18,CTAAATTCGT,0.987 ± 0.08
19,CTAACATCCG,1.06 ± 0.025
20,CTAACGCCTG,1.03 ± 0.07
21,CTAACGGAAT,1.7 ± 0.34
22,CTAACGGGTA,1 ± 0.018
23,CTAAGATCGG,1 ± 0.02
24,CTAAGCTTTG,1 ± 0.035
25,CTAAGGCCTG,0.97 ± 0.072

row,Sequence,switch fluorescence ratio
1,CTAAGGCGAT,1.06 ± 0.12
2,CTAAGGGGCA,1 ± 0.019
3,CTAAGGGGTG,1.022 ± 0.0057
4,CTAAGGGTTC,0.999 ± 0.015
5,CTAAGGTGTT,1.325 ± 0.011
6,CTAAGTAGAT,1.02 ± 0.028
7,CTAAGTTTGA,1.03 ± 0.037
8,CTAATCAGCT,0.977 ± 0.019
9,CTAATGACGT,1.01 ± 0.015
10,CTAATGGAGC,0.98 ± 0.017
11,CTAATTTGCC,1.02 ± 0.084
12,CTAATTTTTG,1 ± 0.024
13,CTACAAGTTA,1.048 ± 0.0027
14,CTACACGAGA,1.09 ± 0.019
15,CTACATGCCC,1.15 ± 0.18
16,CTACCGGATT,1.07 ± 0.012
17,CTACGAAGTA,1.01 ± 0.015
18,CTACTCTCGC,1.15 ± 0.019
19,CTACTGGGGA,1.05 ± 0.036
20,CTACTGTGGG,0.9651 ± 0.006
21,CTACTTAGGG,1.03 ± 0.036
22,CTACTTGAGT,0.985 ± 0.019
23,CTAGACCAGG,1.01 ± 0.014
24,CTAGACGTTT,1.01 ± 0.047
25,CTAGAGGGGA,1.14 ± 0.2

row,Sequence,switch fluorescence ratio
1,CTAGCAACGT,1.03 ± 0.067
2,CTAGGAAGGT,1.01 ± 0.033
3,CTAGGAGGCG,1.03 ± 0.053
4,CTAGGATCGG,0.993 ± 0.057
5,CTAGGATGTA,0.986 ± 0.015
6,CTAGGCAGGG,1.01 ± 0.005
7,CTAGGCTCAA,1.004 ± 0.004
8,CTAGGGCTGA,0.972 ± 0.013
9,CTAGGGGGAT,0.9962 ± 0.0043
10,CTAGGGGTTT,1 ± 0.034
11,CTAGGTGGGG,1.02 ± 0.025
12,CTAGGTGTGA,1.07 ± 0.017
13,CTAGGTTTGA,0.987 ± 0.019
14,CTAGTCGTAC,1.03 ± 0.068
15,CTAGTCTGAA,0.982 ± 0.031
16,CTAGTGGTGA,0.972 ± 0.015
17,CTAGTTAGCT,1.015 ± 0.0097
18,CTAGTTTTTG,0.997 ± 0.049
19,CTATAAACGG,1.03 ± 0.054
20,CTATAACGTT,1.01 ± 0.005
21,CTATACCGTT,1.003 ± 0.0048
22,CTATATGGAC,1.05 ± 0.017
23,CTATCACAGG,2.01 ± 0.08
24,CTATCAGCTA,1.1 ± 0.03
25,CTATCCGTGC,1.287 ± 0.0028
